The target of the assay is T1, FcγRIa extracellular domain with C-terminal His tag (human, UniProt P12314 16-292).
T1 construct: extracellular domain; Expressed in FreeStyle293 cells; used as analyte in Biacore; also called FcgRI; 1a; not shown: His tag at the C terminus
Briefly: SPR (Biacore), captured antibody, FcγRIa analyte; relative to GpH7-A5/GpH7-B3/GpL16-k0 = 100.

The results in this text go back to US20180155451A1 (published 2018).

T1 sequence (P12314 16-292): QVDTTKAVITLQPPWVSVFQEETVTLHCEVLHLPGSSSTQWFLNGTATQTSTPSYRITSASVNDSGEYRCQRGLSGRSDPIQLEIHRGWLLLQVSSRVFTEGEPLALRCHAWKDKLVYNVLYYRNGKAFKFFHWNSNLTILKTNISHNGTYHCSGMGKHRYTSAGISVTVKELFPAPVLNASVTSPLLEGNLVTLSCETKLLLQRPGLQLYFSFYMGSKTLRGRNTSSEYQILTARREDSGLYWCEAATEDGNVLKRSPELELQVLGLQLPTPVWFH

B1: GpH7-A5/GpH7-B3 variant (S337_15Y)/GpL16-k0 (antibody, human IgG1, kappa)
heavy 1: not shown
heavy 2: not shown
light: DIVMTQSPLSLPVTPGEPASISCQASESLVHSNRNTYLHWYLQKPGQSPQLLIYKVSNRFSGVPDRFSGSGSGTDFTLKISRVEAEDVGVYYCSQNTHVPPTFGQGTKVEIERTVAAPSVFIFPPSDEQLKSGTASVVCLLNNFYPREAKVQWKVDNALQSGNSQESVTEQDSKDSTYSLSSTLTLSKADYEKHKVYACEVTHQGLSSPVTKSFNRGEC
notes: Heterodimerized; only the B3 chain altered; also called He Ab S337_15Y
Take B1: the He/Con_1a was 104 % of control.

B2: GpH7-A5/GpH7-B3 variant (T335_15Y)/GpL16-k0 (antibody, human IgG1, kappa)
heavy 1: not shown
heavy 2: not shown
light: DIVMTQSPLSLPVTPGEPASISCQASESLVHSNRNTYLHWYLQKPGQSPQLLIYKVSNRFSGVPDRFSGSGSGTDFTLKISRVEAEDVGVYYCSQNTHVPPTFGQGTKVEIERTVAAPSVFIFPPSDEQLKSGTASVVCLLNNFYPREAKVQWKVDNALQSGNSQESVTEQDSKDSTYSLSSTLTLSKADYEKHKVYACEVTHQGLSSPVTKSFNRGEC
notes: Heterodimerized; only the B3 chain altered; also called He Ab T335_15Y
As for B2, the He/Con_1a is 107 % of control.

B3: GpH7-A5/GpH7-B3 variant (S337_19Q)/GpL16-k0 (antibody, human IgG1, kappa)
heavy 1: not shown
heavy 2: not shown
light: DIVMTQSPLSLPVTPGEPASISCQASESLVHSNRNTYLHWYLQKPGQSPQLLIYKVSNRFSGVPDRFSGSGSGTDFTLKISRVEAEDVGVYYCSQNTHVPPTFGQGTKVEIERTVAAPSVFIFPPSDEQLKSGTASVVCLLNNFYPREAKVQWKVDNALQSGNSQESVTEQDSKDSTYSLSSTLTLSKADYEKHKVYACEVTHQGLSSPVTKSFNRGEC
notes: Heterodimerized; only the B3 chain altered; also called He Ab S337_19Q
Consider B3, for which the He/Con_1a is 105 % of control.

B4: GpH7-A5/GpH7-B3 variant (T335_18N)/GpL16-k0 (antibody, human IgG1, kappa)
heavy 1: not shown
heavy 2: not shown
light: DIVMTQSPLSLPVTPGEPASISCQASESLVHSNRNTYLHWYLQKPGQSPQLLIYKVSNRFSGVPDRFSGSGSGTDFTLKISRVEAEDVGVYYCSQNTHVPPTFGQGTKVEIERTVAAPSVFIFPPSDEQLKSGTASVVCLLNNFYPREAKVQWKVDNALQSGNSQESVTEQDSKDSTYSLSSTLTLSKADYEKHKVYACEVTHQGLSSPVTKSFNRGEC
notes: Heterodimerized; only the B3 chain altered; also called He Ab T335_18N
As for B4, the He/Con_1a was 106 % of control.

B5: GpH7-A5/GpH7-B3 variant (T335_10E)/GpL16-k0 (antibody, human IgG1, kappa)
heavy 1: not shown
heavy 2: not shown
light: DIVMTQSPLSLPVTPGEPASISCQASESLVHSNRNTYLHWYLQKPGQSPQLLIYKVSNRFSGVPDRFSGSGSGTDFTLKISRVEAEDVGVYYCSQNTHVPPTFGQGTKVEIERTVAAPSVFIFPPSDEQLKSGTASVVCLLNNFYPREAKVQWKVDNALQSGNSQESVTEQDSKDSTYSLSSTLTLSKADYEKHKVYACEVTHQGLSSPVTKSFNRGEC
notes: Heterodimerized; only the B3 chain altered; also called He Ab T335_10E
For the molecule B5, the He/Con_1a was 109 % of control.

B6: GpH7-A5/GpH7-B3 variant (T335_07I)/GpL16-k0 (antibody, human IgG1, kappa)
heavy 1: not shown
heavy 2: not shown
light: DIVMTQSPLSLPVTPGEPASISCQASESLVHSNRNTYLHWYLQKPGQSPQLLIYKVSNRFSGVPDRFSGSGSGTDFTLKISRVEAEDVGVYYCSQNTHVPPTFGQGTKVEIERTVAAPSVFIFPPSDEQLKSGTASVVCLLNNFYPREAKVQWKVDNALQSGNSQESVTEQDSKDSTYSLSSTLTLSKADYEKHKVYACEVTHQGLSSPVTKSFNRGEC
notes: Heterodimerized; only the B3 chain altered; also called He Ab T335_07I
Take B6: the He/Con_1a was 109 % of control.

B7: GpH7-A5/GpH7-B3 variant (T335_08L)/GpL16-k0 (antibody, human IgG1, kappa)
heavy 1: not shown
heavy 2: not shown
light: DIVMTQSPLSLPVTPGEPASISCQASESLVHSNRNTYLHWYLQKPGQSPQLLIYKVSNRFSGVPDRFSGSGSGTDFTLKISRVEAEDVGVYYCSQNTHVPPTFGQGTKVEIERTVAAPSVFIFPPSDEQLKSGTASVVCLLNNFYPREAKVQWKVDNALQSGNSQESVTEQDSKDSTYSLSSTLTLSKADYEKHKVYACEVTHQGLSSPVTKSFNRGEC
notes: Heterodimerized; only the B3 chain altered; also called He Ab T335_08L
Take B7: the He/Con_1a is 115 % of control.

B8: GpH7-A5/GpH7-B3 variant (T335_11K)/GpL16-k0 (antibody, human IgG1, kappa)
heavy 1: not shown
heavy 2: not shown
light: DIVMTQSPLSLPVTPGEPASISCQASESLVHSNRNTYLHWYLQKPGQSPQLLIYKVSNRFSGVPDRFSGSGSGTDFTLKISRVEAEDVGVYYCSQNTHVPPTFGQGTKVEIERTVAAPSVFIFPPSDEQLKSGTASVVCLLNNFYPREAKVQWKVDNALQSGNSQESVTEQDSKDSTYSLSSTLTLSKADYEKHKVYACEVTHQGLSSPVTKSFNRGEC
notes: Heterodimerized; only the B3 chain altered; also called He Ab T335_11K
Turning to B8, the He/Con_1a was 111 % of control.

B9: GpH7-A5/GpH7-B3 variant (T335_09D)/GpL16-k0 (antibody, human IgG1, kappa)
heavy 1: not shown
heavy 2: not shown
light: DIVMTQSPLSLPVTPGEPASISCQASESLVHSNRNTYLHWYLQKPGQSPQLLIYKVSNRFSGVPDRFSGSGSGTDFTLKISRVEAEDVGVYYCSQNTHVPPTFGQGTKVEIERTVAAPSVFIFPPSDEQLKSGTASVVCLLNNFYPREAKVQWKVDNALQSGNSQESVTEQDSKDSTYSLSSTLTLSKADYEKHKVYACEVTHQGLSSPVTKSFNRGEC
notes: Heterodimerized; only the B3 chain altered; also called He Ab T335_09D
For B9, the He/Con_1a is 108 % of control.

B10: GpH7-A5/GpH7-B3 variant (T335_06M)/GpL16-k0 (antibody, human IgG1, kappa)
heavy 1: not shown
heavy 2: not shown
light: DIVMTQSPLSLPVTPGEPASISCQASESLVHSNRNTYLHWYLQKPGQSPQLLIYKVSNRFSGVPDRFSGSGSGTDFTLKISRVEAEDVGVYYCSQNTHVPPTFGQGTKVEIERTVAAPSVFIFPPSDEQLKSGTASVVCLLNNFYPREAKVQWKVDNALQSGNSQESVTEQDSKDSTYSLSSTLTLSKADYEKHKVYACEVTHQGLSSPVTKSFNRGEC
notes: Heterodimerized; only the B3 chain altered; also called He Ab T335_06M
B10: the He/Con_1a was 107 % of control.

B11: GpH7-A5/GpH7-B3 variant (T335_12R)/GpL16-k0 (antibody, human IgG1, kappa)
heavy 1: not shown
heavy 2: not shown
light: DIVMTQSPLSLPVTPGEPASISCQASESLVHSNRNTYLHWYLQKPGQSPQLLIYKVSNRFSGVPDRFSGSGSGTDFTLKISRVEAEDVGVYYCSQNTHVPPTFGQGTKVEIERTVAAPSVFIFPPSDEQLKSGTASVVCLLNNFYPREAKVQWKVDNALQSGNSQESVTEQDSKDSTYSLSSTLTLSKADYEKHKVYACEVTHQGLSSPVTKSFNRGEC
notes: Heterodimerized; only the B3 chain altered; also called He Ab T335_12R
B11: the He/Con_1a was 113 % of control.

B12: GpH7-A5/GpH7-B3 variant (T335_16H)/GpL16-k0 (antibody, human IgG1, kappa)
heavy 1: not shown
heavy 2: not shown
light: DIVMTQSPLSLPVTPGEPASISCQASESLVHSNRNTYLHWYLQKPGQSPQLLIYKVSNRFSGVPDRFSGSGSGTDFTLKISRVEAEDVGVYYCSQNTHVPPTFGQGTKVEIERTVAAPSVFIFPPSDEQLKSGTASVVCLLNNFYPREAKVQWKVDNALQSGNSQESVTEQDSKDSTYSLSSTLTLSKADYEKHKVYACEVTHQGLSSPVTKSFNRGEC
notes: Heterodimerized; only the B3 chain altered; also called He Ab T335_16H
On to B12, for which the He/Con_1a was 106 % of control.

B13: GpH7-A5/GpH7-B3 variant (S337_20W)/GpL16-k0 (antibody, human IgG1, kappa)
heavy 1: not shown
heavy 2: not shown
light: DIVMTQSPLSLPVTPGEPASISCQASESLVHSNRNTYLHWYLQKPGQSPQLLIYKVSNRFSGVPDRFSGSGSGTDFTLKISRVEAEDVGVYYCSQNTHVPPTFGQGTKVEIERTVAAPSVFIFPPSDEQLKSGTASVVCLLNNFYPREAKVQWKVDNALQSGNSQESVTEQDSKDSTYSLSSTLTLSKADYEKHKVYACEVTHQGLSSPVTKSFNRGEC
notes: Heterodimerized; only the B3 chain altered; also called He Ab S337_20W
On to B13, for which the He/Con_1a was 105 % of control.

B14: GpH7-A5/GpH7-B3 variant (T335_20W)/GpL16-k0 (antibody, human IgG1, kappa)
heavy 1: not shown
heavy 2: not shown
light: DIVMTQSPLSLPVTPGEPASISCQASESLVHSNRNTYLHWYLQKPGQSPQLLIYKVSNRFSGVPDRFSGSGSGTDFTLKISRVEAEDVGVYYCSQNTHVPPTFGQGTKVEIERTVAAPSVFIFPPSDEQLKSGTASVVCLLNNFYPREAKVQWKVDNALQSGNSQESVTEQDSKDSTYSLSSTLTLSKADYEKHKVYACEVTHQGLSSPVTKSFNRGEC
notes: Heterodimerized; only the B3 chain altered; also called He Ab T335_20W
Turning to B14, the He/Con_1a was 106 % of control.

B15: GpH7-A5/GpH7-B3 variant (T335_19Q)/GpL16-k0 (antibody, human IgG1, kappa)
heavy 1: not shown
heavy 2: not shown
light: DIVMTQSPLSLPVTPGEPASISCQASESLVHSNRNTYLHWYLQKPGQSPQLLIYKVSNRFSGVPDRFSGSGSGTDFTLKISRVEAEDVGVYYCSQNTHVPPTFGQGTKVEIERTVAAPSVFIFPPSDEQLKSGTASVVCLLNNFYPREAKVQWKVDNALQSGNSQESVTEQDSKDSTYSLSSTLTLSKADYEKHKVYACEVTHQGLSSPVTKSFNRGEC
notes: Heterodimerized; only the B3 chain altered; also called He Ab T335_19Q
In the case of B15, the He/Con_1a was 105 % of control.

B16: GpH7-A5/GpH7-B3 variant (T335_05P)/GpL16-k0 (antibody, human IgG1, kappa)
heavy 1: not shown
heavy 2: not shown
light: DIVMTQSPLSLPVTPGEPASISCQASESLVHSNRNTYLHWYLQKPGQSPQLLIYKVSNRFSGVPDRFSGSGSGTDFTLKISRVEAEDVGVYYCSQNTHVPPTFGQGTKVEIERTVAAPSVFIFPPSDEQLKSGTASVVCLLNNFYPREAKVQWKVDNALQSGNSQESVTEQDSKDSTYSLSSTLTLSKADYEKHKVYACEVTHQGLSSPVTKSFNRGEC
notes: Heterodimerized; only the B3 chain altered; also called He Ab T335_05P
Turning to B16, the He/Con_1a was 106 % of control.
